Laboratory results taken from the supplement of paper PMC10567573.

B1: LMNB1 (parent)
chain: LYKEELEQTYHAKLENARLSSEMN

Variants of: B1
Assay: protein stability index of a GFP-peptide fusion (GPS, HEK-293T) (PSI 1-6); higher = more stable
Details: c terminus: a fixed tail appended
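Also: lentivirally expressed fusions sorted by FACS into six bins by GFP to DsRed ratio, PSI derived from sequencing read proportions per bin multiplied by bin number.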

Row | Variant | protein stability index
1 | M23Q | 3.04
2 | M23N | 2.95
3 | M23E | 2.89
4 | M23W | 2.58
5 | M23S | 2.87
6 | M23H | 2.94
7 | M23P | 2.67
8 | M23V | 2.46
9 | M23A | 3.24
10 | M23C | 2.76
11 | M23D | 2.82
12 | M23R | 3.21
13 | M23K | 3.28
14 | M23G | 2.8
15 | M23T | 2.52
16 | M23L | 2.19
17 | A17W | 1.78
18 | A17S | 3.61
19 | A17M | 1.98
20 | A17I | 1.97
21 | A17G | 4.01
22 | A17R | 3.71
23 | A17L | 2.44
24 | A17Q | 3.72

Row | Variant | protein stability index
25 | A17P | 2.66
26 | A17Y | 2.2
27 | A17N | 3.86
28 | A17E | 4.26
29 | A17D | 4.14
30 | A17C | 1.82
31 | A17K | 3.9
32 | A17V | 1.41
33 | A17T | 2.61
34 | A17H | 3.52
35 | A17F | 1.82
36 | E15H | 2.38
37 | E15F | 2.38
38 | E15C | 2.06
39 | E15D | 3.48
40 | E15K | 2.98
41 | E15I | 2.44
42 | E15A | 2.61
43 | E15G | 2.65
44 | E15S | 2.33
45 | E15N | 2.71
46 | E15Y | 2.47
47 | E15T | 2.25
48 | E15L | 2.9

Row | Variant | protein stability index
49 | E15W | 1.94
50 | E15Q | 2.58
51 | E15R | 2.76
52 | E15P | 3.31
53 | E15M | 1.94
54 | E15V | 2.01
55 | N16E | 4
56 | N16A | 2.98
57 | N16Y | 1.83
58 | N16C | 2.48
59 | N16F | 1.89
60 | N16S | 2.42
61 | N16M | 3.03
62 | N16I | 2.35
63 | N16R | 2.92
64 | N16P | 3.33
65 | N16L | 3.23
66 | N16Q | 3.32
67 | N16H | 3.14
68 | N16D | 2.92
69 | N16K | 2.98
70 | N16V | 2.3
71 | N16G | 2.27
72 | N16T | 2.96

Row | Variant | protein stability index
73 | L14Q | 4.56
74 | L14E | 4.64
75 | L14V | 3.49
76 | L14P | 5
77 | L14S | 4.66
78 | L14D | 4.74
79 | L14H | 4.59
80 | L14I | 3.46
81 | L14K | 5.64
82 | L14W | 3.11
83 | L14G | 4.36
84 | L14C | 4.28
85 | L14F | 2.58
86 | L14T | 4.34
87 | L14R | 4.78
88 | L14N | 4.54
89 | L14Y | 3.51
90 | L14A | 4.49
91 | L14M | 3.09
92 | N24C | 2.33
93 | N24T | 2.46
94 | N24Y | 2.27
95 | N24L | 2.51
96 | N24W | 1.79

Row | Variant | protein stability index
97 | N24H | 3.28
98 | N24A | 2.43
99 | N24E | 3.25
100 | N24P | 2.17
101 | N24G | 3.47
102 | N24M | 2.6
103 | N24S | 2.64
104 | N24R | 3.11
105 | N24V | 2.26
106 | N24I | 2.48
107 | N24Q | 3.04
108 | N24K | 2.33
109 | N24D | 3.25
110 | N24F | 1.88
111 | S21G | 2.51
112 | S21V | 2.26
113 | S21H | 2.59
114 | S21A | 2.68
115 | S21E | 3.18
116 | S21T | 2.83
117 | S21L | 1.78
118 | S21R | 2.25
119 | S21I | 2.35
120 | S21D | 3.48

Row | Variant | protein stability index
121 | S21W | 1.82
122 | S21Q | 2.55
123 | S21Y | 2.1
124 | S21P | 2.37
125 | S21M | 2.72
126 | S21N | 2.55
127 | S21K | 2.91
128 | S21C | 2.02
129 | S21F | 2.42
130 | R18I | 2.27
131 | R18K | 3.31
132 | R18G | 3.35
133 | R18A | 3.26
134 | R18H | 3.1
135 | R18M | 2.76
136 | R18N | 3.83
137 | R18E | 3.72
138 | R18W | 1.08
139 | R18S | 2.92
140 | R18V | 2.1
141 | R18Q | 3.14
142 | R18L | 2.81
143 | R18F | 2.17
144 | R18P | 3.62

Row | Variant | protein stability index
145 | R18Y | 2.24
146 | R18D | 3.7
147 | R18T | 2.73
148 | R18C | 2.6
149 | E22H | 2.22
150 | E22C | 2.83
151 | E22W | 1.74
152 | E22Y | 2.4
153 | E22N | 3.3
154 | E22F | 1.93
155 | E22Q | 2.73
156 | E22K | 2.61
157 | E22V | 2.42
158 | E22M | 2.58
159 | E22G | 2.81
160 | E22P | 2.4
161 | E22L | 2.68
162 | E22R | 2.88
163 | E22T | 2.35
164 | E22A | 2.63
165 | E22D | 2.62
166 | E22S | 3.44
167 | E22I | 2.74
